Data as given in patent publication US20250289897A1, “LEPTIN RECEPTOR AGONISTIC ANTIBODY AS MONO OR COMBO THERAPIES TO TREAT OBESITY” (ELI LILLY AND COMPANY, priority 2024, published 2025).

What was measured:
human LEPR [1] = target: T1, human LEPR (Homo sapiens, UniProt P48357); test: STAT3-luciferase reporter assay in HEK293-STAT3Luc-hLepR1 cells; type: cell-based
T1 construct: introducing DNA plasmids encoding full-length LEPR of different species and STAT3-luciferase reporter gene into HEK293 cells; expressed in transfected cells; host or cells: HEK293 (HEK293-STAT3Luc-hLepR1)
T1 sequence (P48357 22-1165): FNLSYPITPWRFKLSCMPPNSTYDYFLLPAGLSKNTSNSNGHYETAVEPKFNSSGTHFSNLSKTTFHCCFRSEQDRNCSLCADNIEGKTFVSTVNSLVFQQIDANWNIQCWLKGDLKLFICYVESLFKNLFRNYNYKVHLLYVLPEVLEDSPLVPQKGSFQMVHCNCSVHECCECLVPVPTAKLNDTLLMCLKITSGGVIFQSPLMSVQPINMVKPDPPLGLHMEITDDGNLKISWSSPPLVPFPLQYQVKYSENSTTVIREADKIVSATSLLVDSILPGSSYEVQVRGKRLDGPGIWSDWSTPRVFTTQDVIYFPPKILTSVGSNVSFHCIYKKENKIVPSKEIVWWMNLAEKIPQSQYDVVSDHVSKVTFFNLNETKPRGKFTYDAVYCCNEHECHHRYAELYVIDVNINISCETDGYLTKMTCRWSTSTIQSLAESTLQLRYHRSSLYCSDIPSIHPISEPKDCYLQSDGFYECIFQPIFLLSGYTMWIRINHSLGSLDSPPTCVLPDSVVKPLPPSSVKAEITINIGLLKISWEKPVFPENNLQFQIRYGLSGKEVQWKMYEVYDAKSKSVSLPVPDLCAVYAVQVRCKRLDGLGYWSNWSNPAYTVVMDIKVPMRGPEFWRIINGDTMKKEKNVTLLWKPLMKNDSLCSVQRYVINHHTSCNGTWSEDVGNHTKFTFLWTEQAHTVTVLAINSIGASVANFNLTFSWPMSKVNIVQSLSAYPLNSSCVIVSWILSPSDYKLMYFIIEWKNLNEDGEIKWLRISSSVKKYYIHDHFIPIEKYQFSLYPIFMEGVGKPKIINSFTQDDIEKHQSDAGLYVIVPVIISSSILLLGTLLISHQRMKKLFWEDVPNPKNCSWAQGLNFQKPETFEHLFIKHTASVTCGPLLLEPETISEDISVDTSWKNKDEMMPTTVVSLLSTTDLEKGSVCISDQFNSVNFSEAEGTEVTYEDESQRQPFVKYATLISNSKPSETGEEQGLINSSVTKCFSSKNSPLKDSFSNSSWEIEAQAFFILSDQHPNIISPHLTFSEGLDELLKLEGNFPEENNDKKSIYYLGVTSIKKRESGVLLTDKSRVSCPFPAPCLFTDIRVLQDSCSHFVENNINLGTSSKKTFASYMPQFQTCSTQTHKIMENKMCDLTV
Description: (§1) LEPR is a cell surface single-pass transmembrane receptor. Activation of LEPR leads to phosphorylation of intracellular STAT3 (pSTAT3) and subsequent target gene transcription. To measure LEPR activation by anti-LEPR antibodies in the present disclosure, five independent STAT-luciferase reporter cell lines were established by introducing DNA plasmids encoding full-length LEPR of different species and STAT3-luciferase reporter gene into HEK293 cells (Table 4). […]
(§2) Before plating the cells for luciferase assays, the poly-D-Lysine coated 96-well plates (Corning Inc, #354651) were rinsed once with phosphate buffered solution (PBS). […] Cell lysing and One-Glo luciferase substrate solution (Promega, #E6120) were then added to each well, and relative luciferase units (RLUs) were measured on a ClarioStar plate reader. For each reporter cell line, positive control LEPR activation was calculated as the average RLUs stimulated by 20 nM recombinant human leptin protein (SEQ ID NO:27) minus the average RLUs of unstimulated cells and was set as maximum LEPR activation (100%). […]

human LEPR [2] = target: T1, human LEPR; test: pERK induction (AlphaLISA p-ERK1/2) in HEK293-STAT3Luc-hLepR1 cells; type: cell-based
Protocol: Antibodies were tested for the ability to induce phosphorylation of extracellular-signal-related kinase (pERK) in HEK293-STAT3Luc-hLepR1 cells. To measure pERK induction, cells were first cultured overnight at 37° C. in 96-well plate with DMEM medium supplemented with 10% FBS. On day 2, medium was removed, cells were washed in serum-free DMEM and incubated for an additional 24-hour in serum-free DMEM. On day 3, medium was removed and 1:4 series dilutions of antibodies A, B, and C with top concentration of 200nM in serum-free DMEM were added to the cells for 15 minutes. Testing was run in duplicates. Recombinant human leptin protein (SEQ ID NO:27) was used as a positive control in this assay. An IgGI with Fc modifications to ablate binding to Fcγ receptors was used as a negative control (IgG isotype control). Phospho-ERK1/2 was assessed in the whole cell lysate by measuring the amplified luminescence with AlphaLISA SureFire Ultra p-ERK1/2 (Thr202/Tyr204) kit (PerkinElmer, #ALSU-PERK-A-HV). Data was calculated using 4 parameters sigmoidal fit of the data (SigmaPlot software). Results, expressed in Table 12 are averaged EC50 of two independent experiments.

canine-LEPR = test: STAT3-luciferase reporter assay in HEK293-STAT3Luc-dLepR7 cells; type: cell-based, Canis lupus
Description: as §1, §2

[3] = STAT3-luciferase, 20 hours, read-out: EC50 (nM) ± SEM
[4] = top of fitted curve vs response to 20 nM recombinant human leptin

EC50 (human LEPR [1]; [3]): 0.0491 ± 0.0044 nM
Agonism (%) ± SEM (human LEPR [1]; [4]): 105.83%
Baseline RLU (human LEPR [2]; pERK AlphaLISA): 29762.5 RLU
Maximum RLU (human LEPR [2]; pERK AlphaLISA): 137565 RLU
EC50 (human LEPR [2]; pERK, 15 minutes, average of two independent experiments, read-out: EC50 (nM) ± STDEV): 1.07 nM
EC50 (canine-LEPR; [3]): 0.582 ± 0.172 nM
Substance: human leptin: recombinant human leptin protein (SEQ ID NO:27), positive control
Agonism (%) ± SEM (canine-LEPR; [4]): 107.5%
